This note sets out measurements from patent publication US20250361280A1 (Protagonist Therapeutics, Inc., priority 2022, published 2025).

The target in assay [1] is T1, human ferroportin (SLC40A1) fused in frame with the GFP protein, stably expressed in HEK293 cells (human) (UniProt Q9NP59).
T1 sequence (looked up): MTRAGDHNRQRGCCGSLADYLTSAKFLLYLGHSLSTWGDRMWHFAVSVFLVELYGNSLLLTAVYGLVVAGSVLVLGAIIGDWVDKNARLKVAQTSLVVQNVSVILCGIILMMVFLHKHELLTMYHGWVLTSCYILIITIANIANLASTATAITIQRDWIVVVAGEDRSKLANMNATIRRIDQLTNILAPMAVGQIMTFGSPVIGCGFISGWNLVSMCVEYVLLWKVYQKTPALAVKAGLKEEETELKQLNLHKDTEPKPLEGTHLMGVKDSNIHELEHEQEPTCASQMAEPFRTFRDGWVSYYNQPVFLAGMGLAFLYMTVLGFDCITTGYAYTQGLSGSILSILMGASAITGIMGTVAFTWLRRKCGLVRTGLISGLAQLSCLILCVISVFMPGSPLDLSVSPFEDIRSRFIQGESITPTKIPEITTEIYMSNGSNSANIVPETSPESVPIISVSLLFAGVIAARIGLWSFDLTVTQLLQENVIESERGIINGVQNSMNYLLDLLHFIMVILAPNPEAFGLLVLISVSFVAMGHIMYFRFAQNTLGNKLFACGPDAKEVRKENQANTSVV
As to the kind of experiment: cell-based or functional assay.

The next assay concerns the target T2, human ferroportin (Homo sapiens, UniProt Q9NP59).
T2 sequence (Q9NP59 1-571): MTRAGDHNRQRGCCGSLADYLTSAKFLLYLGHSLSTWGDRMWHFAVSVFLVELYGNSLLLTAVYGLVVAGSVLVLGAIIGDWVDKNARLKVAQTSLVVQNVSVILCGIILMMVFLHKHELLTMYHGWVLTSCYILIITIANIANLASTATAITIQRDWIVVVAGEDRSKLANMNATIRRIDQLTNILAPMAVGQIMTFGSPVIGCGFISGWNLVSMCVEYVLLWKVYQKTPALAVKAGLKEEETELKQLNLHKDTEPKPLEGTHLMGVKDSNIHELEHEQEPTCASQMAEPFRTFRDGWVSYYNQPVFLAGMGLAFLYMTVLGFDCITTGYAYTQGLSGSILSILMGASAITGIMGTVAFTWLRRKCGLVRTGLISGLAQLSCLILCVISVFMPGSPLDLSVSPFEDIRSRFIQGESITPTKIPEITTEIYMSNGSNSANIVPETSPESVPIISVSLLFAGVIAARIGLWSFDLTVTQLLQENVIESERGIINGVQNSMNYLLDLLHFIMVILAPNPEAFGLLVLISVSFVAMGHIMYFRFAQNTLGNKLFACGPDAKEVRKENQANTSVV
Description: FPN internalization assay (FPN activity assay), loss of ferroportin-GFP fluorescence. The assay is classed as cell-based. Particulars: Table 5 reference compounds; value in μM; read-out: Potency EC50.

As a reminder, the EC50 is the concentration giving half of the maximal effect.

For the molecule “RI-Mini Hepcidin, Hy-DPhe-DIle-DCys-DIle-DPro-DPhe-DHis-DThr-DAsp-NH2 (peptide)”, the Potency EC50 (nM) in assay [1] was greater than 10000 nM.

As for `CC[C@@H](C)[C@@H](NC(=O)[C@H](N)Cc1ccccc1)C(=O)N[C@H](CS)C(=O)N[C@@H](C(=O)N1CCC[C@@H]1C(=O)N[C@H](Cc1ccccc1)C(=O)N[C@H](Cc1c[nH]cn1)C(=O)N[C@@H](C(=O)N[C@H](CC(=O)O)C(N)=O)[C@H](C)O)[C@H](C)CC` [RI-Mini Hepcidin, Hy-DPhe-DIle-DCys-DIle-DPro-DPhe-DHis-DThr-DAsp-NH2], at human ferroportin, the EC50 was greater than 10 µM.

B1: Mini-Hepcidin 1-9, Hy-…-NH2 (peptide, from a related filing)
peptide: H-DTHFPICIF-NH2
On to B1, for which, in assay [1], the Potency EC50 worked out at 0.712 µM.
